Each block holds one binder with its values, some of them ahead of it.
Experiments:
Assay in all cases: SPR
[1] = target: long-acting C5a-blocking cyclic peptide drug Cp1 (head-tail cyclization of the linear peptide K1)
K2 = target: K2
K4 = target: K4
K3 = target: K3
linear peptide K1 = target: linear peptide K1

B1: human C5a protein (ligand)
chain: TLQKKIEEIAAKYKHSVVKKCCYDGACVNNDETCEQRAARISLGPRCIKAFTECCVVASQLRANISHKDMQLGR
Kd [1]: 7.41 µM
koff [1]: 0.395 s⁻¹

B2: mouse C5 (natural protein)
chain 1: QEQTYVISAPKILRVGSSENVVIQVHGYTEAFDATLSLKSYPDKKVTFSSGYVNLSPENKFQNAALLTLQPNQVPREESPVSHVYLEVVSKHFSKSKKIPITYNNGILFIHTDKPVYTPDQSVKIRVYSLGDDLKPAKRETVLTFIDPEGSEVDIVEENDYTGIISFPDFKIPSNPKYGVWTIKANYKKDFTTTGTAYFEIKEYVLPRFSVSIELERTFIGYKNFKNFEITVKARYFYNKVVPDAEVYAFFGLREDIKDEEKQMMHKATQAAKLVDGVAQISFDSETAVKELSYNSLEDLNNKYLYIAVTVTESSGGFSEEAEIPGVKYVLSPYTLNLVATPLFVKPGIPFSIKAQVKDSLEQAVGGVPVTLMAQTVDVNQETSDLETKRSITHDTDGVAVFVLNLPSNVTVLKFEIRTDDPELPEENQASKEYEAVAYSSLSQSYIYIAWTENYKPMLVGEYLNIMVTPKSPYIDKITHYNYLILSKGKIVQYGTREKLFSSTYQNINIPVTQNMVPSARLLVYYIVTGEQTAELVADAVWINIEEKCGNQLQVHLSPDEYVYSPGQTVSLDMVTEADSWVALSAVDRAVYKVQGNAKRAMQRVFQALDEKSDLGCGAGGGHDNADVFHLAGLTFLTNANADDSHYRDDSCKEIL
chain 2: NLHLLRQKIEEQAAKYKHSVPKKCCYDGARVNFYETCEERVARVTIGPLCIRAFNECCTIANKIRKESPHKPVQLGRIHIKTLLPVMKADIRSYFPESWLWEIHRVPKRKQLQVTLPDSLTTWEIQGIGISDNGICVADTLKAKVFKEVFLEMNIPYSVVRGEQIQLKGTVYNYMTSGTKFCVKMSAVEGICTSGSSAASLHTSRPSRCVFQRIEGSSSHLVTFTLLPLEIGLHSINFSLETSFGKDILVKTLRVVPEGVKRESYAGVILDPKGIRGIVNRRKEFPYRIPLDLVPKTKVERILSVKGLLVGEFLSTVLSKEGINILTHLPKGSAEAELMSIAPVFYVFHYLEAGNHWNIFYPDTLSKRQSLEKKIKQGVVSVMSYRNADYSYSMWKGASASTWLTAFALRVLGQVAKYVKQDENSICNSLLWLVEKCQLENGSFKENSQYLPIKLQGTLPAEAQEKTLYLTAFSVIGIRKAVDICPTMKIHTALDKADSFLLENTLPSKSTFTLAIVAYALSLGDRTHPRFRLIVSALRKEAFVKGDPPIYRYWRDTLKRPDSSVPSSGTAGMVETTAYALLASLKLKDMNYANPIIKWLSEEQRYGGGFYSTQDTINAIEGLTEYSLLLKQIHLDMDINVAYKHEGDFHKYKVTEKHFLGRPVEVSLNDDLVVSTGYSSGLATVYVKTVVHKISVSEEFCSFYLKIDTQDIEASSHFRLSDSGFKRIIACASYKPSKEESTSGSSHAVMDISLPTGIGANEEDLRALVEGVDQLLTDYQIKDGHVILQLNSIPSRDFLCVRFRIFELFQVGFLNPATFTVYEYHRPDKQCTMIYSISDTRLQKVCEGAACTCVEADCAQLQAEVDLAISADSRKEKACKPETAYAYKVRITSATEENVFVKYTATLLVTYKTGEAADENSEVTFIKKMSCTNANLVKGKQYLIMGKEVLQIKHNFSFKYIYPLDSSTWIEYWPTDTTCPSCQAFVENLNNFAEDLFLNSCE
Kd [1]: 0.712 µM
koff [1]: 0.0745 s⁻¹

Next, values leading:

Kd (K2): 53.6 µM
koff (K2): 0.00405 s⁻¹
Kd (K4): 2.38 µM
koff (K4): 0.0299 s⁻¹
Kd (K3): 7.12 µM
koff (K3): 0.392 s⁻¹
Kd (linear peptide K1): 2.85 µM
koff (linear peptide K1): 0.00586 s⁻¹
Kd [1]: 5.63 µM
B3: mouse C5a protein (ligand)
chain: NLHLLRQKIEEQAAKYKHSVPKKCCYDGARVNFYETCEERVARVTIGPLCIRAFNECCTIANKIRKESPHKPVQLGR

Kd [1]: 3.58 µM
B4: mouse C5a-desArg (ligand)
chain: B3 chain
